Data on one substance can be found in PMC10615991.

The target of this experiment is Recombinant angiotensin-converting enzyme-2 (ACE2) (UniProt Q9BYF1). Nature of the experiment: LSPR (localized surface plasmon resonance).
Chain of Recombinant angiotensin-converting enzyme-2 (ACE2) (Q9BYF1 18-805): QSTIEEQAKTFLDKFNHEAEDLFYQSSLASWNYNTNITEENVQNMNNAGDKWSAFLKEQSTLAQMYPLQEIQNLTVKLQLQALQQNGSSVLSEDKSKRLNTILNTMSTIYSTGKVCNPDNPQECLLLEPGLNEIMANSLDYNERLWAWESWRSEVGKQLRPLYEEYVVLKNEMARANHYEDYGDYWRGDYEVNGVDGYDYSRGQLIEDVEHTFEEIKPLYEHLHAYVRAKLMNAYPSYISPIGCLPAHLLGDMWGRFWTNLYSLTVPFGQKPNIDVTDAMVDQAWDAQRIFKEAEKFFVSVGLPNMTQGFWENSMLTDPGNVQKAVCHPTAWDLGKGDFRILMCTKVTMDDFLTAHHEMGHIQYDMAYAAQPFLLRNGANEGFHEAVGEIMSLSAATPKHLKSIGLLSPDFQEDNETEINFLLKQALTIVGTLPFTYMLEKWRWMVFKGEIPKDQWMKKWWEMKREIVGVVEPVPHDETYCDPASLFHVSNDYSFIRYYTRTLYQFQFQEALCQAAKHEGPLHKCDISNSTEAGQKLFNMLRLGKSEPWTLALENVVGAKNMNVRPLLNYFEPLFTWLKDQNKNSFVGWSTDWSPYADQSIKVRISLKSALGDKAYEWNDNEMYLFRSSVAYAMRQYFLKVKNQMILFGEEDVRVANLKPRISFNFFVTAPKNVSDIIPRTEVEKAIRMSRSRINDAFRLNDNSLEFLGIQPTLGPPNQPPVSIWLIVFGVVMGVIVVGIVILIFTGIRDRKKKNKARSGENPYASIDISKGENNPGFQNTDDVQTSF

For “SARS-CoV S1 protein (from UniProt P59594 14-667) (domain or fragment)”, the LOD is 0.01 ng/mL; the fold wavelength shift on Au@R/Li against Au@R, at 100 ng/ml was determined as 1.78 fold; the fold wavelength shift on Au@R/Li against Au@R, at 1000 ng/ml stood at 4.51 fold; the fold wavelength shift on Au@R/Li against Au@R, at 10,000 ng/ml amounted to 1.95 fold.
